Laboratory results from patent publication US20260158147A1 (published 2026).

Molecular target: Pre-formed aBeta fibrils (UniProt P05067 672-713)
Assay: ELISA

EC50: 0.702 nM
B1: gantenerumab (antibody, V domains shown)
VH: QVELVESGGGLVQPGGSLRLSCAASGFTFSSYAMSWVRQAPGKGLEWVSAINASGTRTYYADSVKGRFTISRDNSKNTLYLQMNSLRAEDTAVYYCARGKGNTHKPYGYVRYFDVWGQGTLVTVSS
VL: DIVLTQSPATLSLSPGERATLSCRASQSVSSSYLAWYQQKPGQAPRLLIYGASSRATGVPARFSGSGSGTDFTLTISSLEPEDFATYYCLQIYNMPITFGQGTKVEIK
